{"source": "patent EP4606822A1", "about": "(MULTITUDE THERAPEUTICS INC., dated 2024)", "binders": {"B1": {"name": "humanized 4O3 antibody L1H4 (antibody, human IgG1, kappa)", "heavy": "not shown", "light": "EIVLTQSPDTQSVTPKEKVTITCRASQSISDYLHWYQQKPDQSPKLLIKYASQSISGVPSRFSGSGSGTDFTLTINSLEAEDAATYYCQSGRSFPLTFGGGTKVEIKRTVAAPSVFIFPPSDEQLKSGTASVVCLLNNFYPREAKVQWKVDNALQSGNSQESVTEQDSKDSTYSLSSTLTLSKADYEKHKVYACEVTHQGLSSPVTKSFNRGEC", "notes": "also called Hu4O3"}, "B2": {"name": "humanized 4O3 antibody L1H5 (antibody, human IgG1, kappa)", "heavy": "not shown", "light": "B1 light", "notes": "also called Hu4O3 (L1H5); Hu4O3"}, "B3": {"name": "humanized 4O3 antibody L2H4 (antibody, human IgG1, kappa, V domains shown)", "VH": "QVQLQESGPGLVKPSQTLSLTCTVSGISITTGNYRWSWIRQHPGKKLEWIGNIYYSGAITYNPSLKSRVTISRDTSKNQFFLKLSSVTAADTAVYYCARDGGTVVEGWYFDVWGKGTTVTVSS", "VL": "EIVLTQSPDTQSVTPKEKVTITCRASQSISDYLHWYQQKPDQSPKLLIKYASQSISGVPSRFSGSGSGTDFTLTINSLEAEDVGLYYCQSGRSFPLTFGGGTKVEIKR", "notes": "also called Hu4O3"}, "B4": {"name": "humanized 4O3 antibody L4H4 (antibody, human IgG1, kappa, V domains shown)", "VH": "B3 VH", "VL": "B3 VL with D41G, S43A, V83F", "notes": "also called Hu4O3"}, "B5": {"name": "humanized 4O3 antibody L4H7 (antibody, human IgG1, kappa, V domains shown)", "VH": "B3 VH with H42P, K46G, N52Y, F81S, K83Q, S85R, K115Q", "VL": "B3 VL with D41G, S43A, V83F", "notes": "also called Hu4O3"}}, "note": "Substitutions are numbered along the chain they refer to.", "data": [{"target": "T1, HER3 on human tumor cell lines (human, UniProt P21860 20-1342)", "T1 construct": "whole, on cells; The immunogen was the human HER3 extracellular domain (NM_001982.4, positions 20-643), but the flow cytometry assays used endogenous HER3 on cells; also called HER3 protein", "T1 sequence (P21860 20-1342)": "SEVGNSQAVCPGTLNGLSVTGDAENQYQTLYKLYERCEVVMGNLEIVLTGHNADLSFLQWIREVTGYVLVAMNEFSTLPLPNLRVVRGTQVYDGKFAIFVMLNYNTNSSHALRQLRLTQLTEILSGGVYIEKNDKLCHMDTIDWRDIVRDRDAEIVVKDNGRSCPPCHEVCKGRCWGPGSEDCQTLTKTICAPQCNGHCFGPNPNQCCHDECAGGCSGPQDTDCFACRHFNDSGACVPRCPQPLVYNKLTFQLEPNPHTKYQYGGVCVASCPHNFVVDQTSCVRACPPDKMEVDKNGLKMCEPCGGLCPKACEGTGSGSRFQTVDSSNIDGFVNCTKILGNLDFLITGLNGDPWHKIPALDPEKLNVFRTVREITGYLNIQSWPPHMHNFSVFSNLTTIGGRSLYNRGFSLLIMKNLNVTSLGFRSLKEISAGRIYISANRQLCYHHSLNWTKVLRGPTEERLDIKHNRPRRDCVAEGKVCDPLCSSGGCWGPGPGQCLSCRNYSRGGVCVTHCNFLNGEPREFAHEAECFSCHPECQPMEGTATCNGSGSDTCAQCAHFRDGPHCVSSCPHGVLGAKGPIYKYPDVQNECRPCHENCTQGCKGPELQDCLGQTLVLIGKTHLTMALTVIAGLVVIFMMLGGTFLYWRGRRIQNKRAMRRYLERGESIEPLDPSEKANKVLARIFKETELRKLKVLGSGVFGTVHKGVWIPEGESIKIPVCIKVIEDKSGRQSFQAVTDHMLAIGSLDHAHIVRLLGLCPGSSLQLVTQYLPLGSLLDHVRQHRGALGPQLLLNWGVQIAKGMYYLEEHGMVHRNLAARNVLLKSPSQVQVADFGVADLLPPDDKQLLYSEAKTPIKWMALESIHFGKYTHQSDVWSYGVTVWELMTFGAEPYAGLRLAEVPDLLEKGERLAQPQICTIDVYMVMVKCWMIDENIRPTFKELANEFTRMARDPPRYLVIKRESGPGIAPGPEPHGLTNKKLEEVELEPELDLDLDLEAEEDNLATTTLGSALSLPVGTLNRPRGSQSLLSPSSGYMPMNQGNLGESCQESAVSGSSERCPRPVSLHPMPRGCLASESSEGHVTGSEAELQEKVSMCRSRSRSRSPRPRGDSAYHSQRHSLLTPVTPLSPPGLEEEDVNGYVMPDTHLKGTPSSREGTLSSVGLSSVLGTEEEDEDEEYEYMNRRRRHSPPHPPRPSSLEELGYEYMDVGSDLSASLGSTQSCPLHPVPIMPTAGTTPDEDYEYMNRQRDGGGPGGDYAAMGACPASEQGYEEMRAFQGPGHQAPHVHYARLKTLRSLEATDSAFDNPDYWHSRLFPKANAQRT", "assay": "flow cytometry on MDA-MB-453 cells", "units": {"EC50": "nM"}, "values": [{"binder": "B1", "EC50": 71.5}, {"binder": "B2", "EC50": 122}]}, {"target": "T1, HER3 on human tumor cell lines", "assay": "flow cytometry on SW620 cells", "units": {"EC50": "nM"}, "values": [{"binder": "B3", "EC50": 1200}, {"binder": "B1", "EC50": 194}, {"binder": "B2", "EC50": 147}, {"binder": "B4", "EC50": 90}, {"binder": "B5", "EC50": 21.9}]}]}
